Measured values as given in patent US20250340655A1, “EPHA2-TARGETING ANTIBODIES AND THEIR APPLICATIONS IN CANCER TREATMENT” (TAIPEI MEDICAL UNIVERSITY, priority 2022, published 2025).

Legend:
[1] = tested on: HCT116, SW480 and SW460; assay: MTS growth inhibition, colon cancer cells; format: cell-based; details: 3 days (FIG. 18C)
Protocol: The growth inhibitory effect of hSD5-ADC on the three strains of colon cancer cells were tested under different concentrations. At indicated concentrations interacted with the cancer cells for 3 days, and the effects on the growth of cancer cells were observed by MTS assay. (FIG. 18C)

[2] = tested on: BxPc-3 tumor; assay: BxPc-3 tumor xenograft model (IgG hSD5, gemcitabine); format: in vivo, mouse
Protocol: (§1) The freshly prepared BxPc-3 and Mia PaCa-2 cancer cells were harvested during the log growth phase and resuspended in PBS for tumor implantation. Each NOD/SCID mouse was subcutaneously inoculated with cancer cells (5×10^6 to BxPc-3 and 1×10^7 to Mia PaCa-2) for tumor formation. The tumor size was measured twice weekly, and the volume was calculated as follows: V=0.5lw^2, where l=the length and w=the width. When the tumor size was approximately 100 mm3, animals were divided into groups that received (a) vehicle alone through intravenous injection (i.v.) once weekly (qwk), (b) control human IgG1 at 20 mg/kg through i.v. qwk, (c) and (d) hSD5 IgG1 at 2 or 20 mg/kg through i.v. qwk, (e) and (f) gemcitabine at 20 or 100 mg/kg through i.v. twice weekly (biw), or (g) hSD5 IgG1 at 2 mg/kg through i.v. qwk combined with gemcitabine at 20 mg/kg through i.v. biw. At the end of the experiment, the antitumor effects were quantified by dividing the tumor volumes in the treatment groups by those in the control groups and multiplying them by 100 to represent tumor growth inhibition (TGI; %). The mice were also examined frequently for overt signs of adverse drug-related side effects.
(§2) The pancreatic tissue microarray slide (US Biomax, PA483e) was used to detect and analyze the EphA2 expression of clinical samples. In the xenograft animal model, the excised BxPc-3 and Mia PaCa-2 tumors were fixed in formalin, embedded in paraffin, and sliced for immunohistochemical staining (IHC). Commercial antibodies (Cell signaling, Dako; Agilent Technologies; and Abcam) were used for staining the EphA2 molecule, cell proliferation marker Ki-67, and apoptosis marker cleaved caspase 3. The effects of staining were observed using a Zeiss Axioskop-2 microscope (Carl Zeiss).
(§3) Administration of IgG hSD5 (20 mg/kg, iv, qwk, indicated as blue filled inverted triangles) and Gemcitabine (100 mg/kg, iv, biw, indicated as orange filled squares) were used to test the inhibition effect on BxPc-3 tumor growth, n=6, TGI denotes Tumor growth inhibition. (FIG. 7A) Administration of IgG hSD5 (2 mg/kg, iv, qwk, indicated by solid black triangles), Gemcitabine (20 mg/kg, iv, biw, indicated by black open squares), and the experimental group that combined IgG and Gemcitabine treatment simultaneously (indicated by solid red diamonds) were used to teat the growth inhibitory effect of BxPc-3 on the tumor. (FIG. 7B) During treatments, the weight changes of each mouse group were tracked. (FIG. 7C) The expression levels of EphA2, cell proliferation marker Ki67, and apoptosis-related marker cleaved caspase3 in the excised tumor groups were analyzed by IHC staining. (FIG. 7D)

[3] = molecular target: T1, endogenous EphA2 molecules on three strains of gastric cancer cells (Homo sapiens, UniProt P29317); assay: Flow cytometry binding on gastric cancer cells; details: flow cytometry (FIG. 15A)
T1 construct: identify endogenous EphA2 molecules on three strains of gastric cancer cells; endogenous in cells
Excerpt: Flow cytometry was used to analyze the response of hSD5 IgG in identifying endogenous EphA2 molecules on the three strains of gastric cancer cell lines. PC represents the use of commercial Ab to determine the expression of EphA2 on cancer cells; NC represents the control group with irreverent of the isotype IgG1 antibody. The hSD5 was used to identify endogenous EphA2 molecules on three strains of gastric cancer cells by flow cytometry analysis. […] (FIG. 15A)

[4] = molecular target: T2, endogenous EphA2 molecules on cholagiocarcinoma cell lines (HuCCT1, ssp-25, RBE, TFK) and bladder cancer cell line (PC-3) (Homo sapiens, UniProt P29317); assay: Flow cytometry binding on cholagiocarcinoma and bladder cancer cell lines; details: cholagiocarcinoma and bladder cancer cell lines (FIG. 17B)
T2 construct: endogenous in cells; host or cells: HuCCT1, ssp-25, RBE, TFK, PC-3
Excerpt: Flow cytometry was used to analyze the response of hSD5 IgG with different concentrations in identifying endogenous EphA2 molecules on the four strains of cholagiocarcinoma cell lines and bladder cancer cell line. PC represents the use of commercial Ab to determine the expression of EphA2 on cancer cells.

[5] = tested on: hTERT HPNE, AsPC-1, BxPc-3, and Mia PaCa-2; assay: Growth inhibitory response of pancreatic cell lines to serially diluted hSD5-ADC; format: cell-based, human; details: serial dilution (FIGS. 11A-11D)
[6] = tested on: Mia PaCa-2 tumor; assay: Mia PaCa-2 tumor xenograft model (IgG hSD5, gemcitabine); format: in vivo, mouse
Protocol: as §1, §2
as §3, with “Mia PaCa-2 xenograft mice was also used to determine the inhibitory effect of IgG hSD5 on in vivo tumor growth. Administration of” for “Administration of”, “inhibition. (FIG. 8A) Administration of” for “inhibition. (FIG. 7A) Administration of”, “tumor. (FIG. 8B) During treatments,” for “tumor. (FIG. 7B) During treatments,”, “tracked. (FIG. 8C) The expression” for “tracked. (FIG. 7C) The expression”, “staining. (FIG. 8D)” for “staining. (FIG. 7D)”

[7] = molecular target: T3, endogenous EphA2 molecule on colon cancer cells (HCT116, SW480 and SW460) (Homo sapiens, UniProt P29317); assay: Flow cytometry binding on colon cancer cells; details: flow cytometry (FIG. 18B)
T3 construct: endogenous in cells; host or cells: HCT116, SW480, SW460
T3 sequence (P29317 24-976): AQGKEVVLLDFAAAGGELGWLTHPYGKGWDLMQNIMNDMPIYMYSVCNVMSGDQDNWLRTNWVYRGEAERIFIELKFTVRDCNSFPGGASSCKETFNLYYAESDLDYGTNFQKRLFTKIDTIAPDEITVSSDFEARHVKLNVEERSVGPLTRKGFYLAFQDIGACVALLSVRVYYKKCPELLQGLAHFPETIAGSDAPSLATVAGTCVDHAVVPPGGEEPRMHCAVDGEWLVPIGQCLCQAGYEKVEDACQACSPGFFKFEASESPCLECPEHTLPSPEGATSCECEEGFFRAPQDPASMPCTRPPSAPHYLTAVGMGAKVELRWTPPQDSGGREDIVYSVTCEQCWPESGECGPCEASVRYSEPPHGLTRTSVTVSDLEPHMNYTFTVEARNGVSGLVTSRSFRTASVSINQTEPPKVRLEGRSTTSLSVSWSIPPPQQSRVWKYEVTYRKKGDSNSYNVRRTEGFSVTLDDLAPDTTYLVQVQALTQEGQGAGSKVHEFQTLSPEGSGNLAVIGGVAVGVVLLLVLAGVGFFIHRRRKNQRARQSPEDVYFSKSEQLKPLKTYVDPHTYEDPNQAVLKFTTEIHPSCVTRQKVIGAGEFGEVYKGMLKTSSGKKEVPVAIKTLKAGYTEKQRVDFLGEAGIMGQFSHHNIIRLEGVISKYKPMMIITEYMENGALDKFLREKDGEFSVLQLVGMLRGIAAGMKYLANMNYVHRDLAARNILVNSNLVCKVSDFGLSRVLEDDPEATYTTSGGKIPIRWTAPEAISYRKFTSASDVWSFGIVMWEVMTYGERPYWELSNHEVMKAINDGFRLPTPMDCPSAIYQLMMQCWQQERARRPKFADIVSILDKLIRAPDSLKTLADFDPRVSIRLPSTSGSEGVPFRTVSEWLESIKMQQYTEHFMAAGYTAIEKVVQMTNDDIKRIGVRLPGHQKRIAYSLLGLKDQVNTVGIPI

T2 sequence (P29317 24-976): as above
T1 sequence (P29317 24-976): as above

B1: IgG hSD5: complete humanized anti-EphA2 IgG (IgG1) of hSD5 (antibody, V domains shown)
VH: QVQLVESGGGLVQPGGSLRLSCAASGFTFSDYGMGWVRQAPGKGLEWVAGISAAGSFTPYGAAVKGRFTISRDNSKNTVYLQMNSLRAEDTAVYYCARIPSGYRAGEIYTWGQGTLVTVSS
VL: LTQPPSVSVSPGQTVRITCSGSSGSYGWYQQKSPGQAPVTLIYDNDKRPSGIPERFSGSSSGSTSTLTISGVQAEDEADYYCGSADSSTYVGMFGGGTKLTVL
- growth inhibitory response of colon cancer cells [1]: does not provide ideal inhibition effect
- effect on growth of tumors in vivo ([2]; BxPc-3 xenograft mice): significantly inhibited the growth of tumors
- TGI (tumor growth inhibition) ([2]; BxPc-3 xenograft, 20 mg/kg, iv, qwk): 53.1%
- expression levels of EphA2 and Ki-67 in the tumors ([2]; IHC of removed BxPc-3 tumors, compared with control IgG group (FIG. 7D)): significantly decreased
- binding response to EphA2 molecules on gastric cancer cells [3]: significant binding response
- binding response to EphA2 molecules on cancer cells [4]: significant binding response
- growth inhibitory response of pancreatic cell lines [5]: does not provide ideal inhibition effect
- expression levels of EphA2 and Ki-67 in the tissue ([6]; IHC of Mia PaCa-2 tumor tissue sections (FIG. 8D)): significantly decreased
- TGI (tumor growth inhibition) ([6]; Mia PaCa-2 xenograft, 20 mg/kg): 63.2%
- binding response to EphA2 molecules on cancer cells [7]: significant binding response
